# ± gives the uncertainty stated by the source.
# Assay: self-splicing fitness, log relative to wild type (ln ratio); higher = more splicing; Tetrahymena group I intron in knt gene, E. coli kanamycin selection, DiMSum; sequences stand for … in CUCUCU…GGAGGGAAAAGUUAUCAGGCAUGCACCUGGUAGCUAGUCUUUAAACCAAUAGAUUGCAUCGGUUUAAAAGGCAAGACCGUCAAAUUGCGGGAAAGGGGUCAACAGCCGUUCAGUACCAAGUCUCAGGGGAAACUUUGAGAUGGCCUUGCAAAGGGUAUGGUAAUAAGCUGACGGACAUGGUCCUAACCACGCAGCCAAGUCCUAAGUCAACAGAUCUUCUGUUGAUAUGGAUGCAGUUCACAGACUAAAUGUCGGUCGGGGAAGAUGUAUUCUUCUCAUAAGAUAUAGUCGGACCUCUCCUUAAUGGGAGCUAGCGGAUGAAGUGAUGCAACACUGGAGCCGCUGGGAACUAAUUUGUAUGCGAAAGUAUAUUGAUUAGUUUUGGAGUACUCGUGGUCG
# Method in brief: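 Fitness was computed with DiMSum as the error-weighted combination of replicate fold changes, kanamycin versus none, each normalised to wild type. The library randomised all eight intron nucleotides of the P1ex region, with the intron placed in the knt kanamycin-resistance gene on pET-22b(+) in E. coli BL21(DE3). Six replicate transformations were grown overnight at 37°C or 30°C on LB agar with or without 25 μg/mL kanamycin, plus 100 μg/mL carbenicillin, 50 μM IPTG and 0.2% rhamnose. Pooled colonies were amplicon-sequenced on an Illumina HiSeq 2500.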
sequence,measurement,setting,value
UUCAAGCAAUAUUACGGUGU,self-splicing fitness (ln),30 °C,-2.98 ± 0.18
same,self-splicing fitness (ln),37 °C,-2.49 ± 0.17
UAGGAGCAAUAUUACGAAAG,self-splicing fitness (ln),37 °C,-1.17 ± 0.23
UCCGAGCAAUAUUACGGUGA,self-splicing fitness (ln),30 °C,-0.746 ± 0.076
same,self-splicing fitness (ln),37 °C,-0.0617 ± 0.095
UCGGAGCAAUAUUACGACUU,self-splicing fitness (ln),30 °C,-3.46 ± 0.22
same,self-splicing fitness (ln),37 °C,-2.48 ± 0.19
CGAGAGCAAUAUUACGAUUG,self-splicing fitness (ln),37 °C,-2.09 ± 0.34
GGGUAGCAAUAUUACGUCCA,self-splicing fitness (ln),30 °C,-0.128 ± 0.093
same,self-splicing fitness (ln),37 °C,0.376 ± 0.12
UGAUAGCAAUAUUACGCCUU,self-splicing fitness (ln),30 °C,-3.11 ± 0.31
same,self-splicing fitness (ln),37 °C,-1.32 ± 0.2
AUCGAGCAAUAUUACGUUCC,self-splicing fitness (ln),30 °C,-1.89 ± 0.24
same,self-splicing fitness (ln),37 °C,-2.02 ± 0.26
AGCGAGCAAUAUUACGAUGA,self-splicing fitness (ln),30 °C,-2.57 ± 0.44
GAGUAGCAAUAUUACGUGAG,self-splicing fitness (ln),30 °C,-2.5 ± 0.081
same,self-splicing fitness (ln),37 °C,-1.28 ± 0.12
AGCCAGCAAUAUUACGUCUG,self-splicing fitness (ln),30 °C,-4.62 ± 0.25
same,self-splicing fitness (ln),37 °C,-1.94 ± 0.17
CAGGAGCAAUAUUACGAAUG,self-splicing fitness (ln),30 °C,-3.6 ± 0.2
same,self-splicing fitness (ln),37 °C,-2.76 ± 0.22
GUGUAGCAAUAUUACGUGAG,self-splicing fitness (ln),30 °C,-1.23 ± 0.095
same,self-splicing fitness (ln),37 °C,-0.931 ± 0.093
ACAGAGCAAUAUUACGGGUA,self-splicing fitness (ln),30 °C,-2.47 ± 0.36
same,self-splicing fitness (ln),37 °C,-3 ± 0.31
GUGUAGCAAUAUUACGUAGG,self-splicing fitness (ln),30 °C,-2.66 ± 0.18
same,self-splicing fitness (ln),37 °C,-1.5 ± 0.18
AAUUAGCAAUAUUACGUUUG,self-splicing fitness (ln),30 °C,-3.16 ± 0.22
same,self-splicing fitness (ln),37 °C,-2.9 ± 0.27
AGGAAGCAAUAUUACGAACC,self-splicing fitness (ln),30 °C,-0.283 ± 0.29
same,self-splicing fitness (ln),37 °C,-0.131 ± 0.3
UUCCAGCAAUAUUACGGAAG,self-splicing fitness (ln),30 °C,-2.85 ± 0.19
same,self-splicing fitness (ln),37 °C,-2.16 ± 0.2
CAUGAGCAAUAUUACGGGUG,self-splicing fitness (ln),30 °C,-3.68 ± 0.19
same,self-splicing fitness (ln),37 °C,-2.43 ± 0.13
AUUCAGCAAUAUUACGAAUA,self-splicing fitness (ln),30 °C,-2.49 ± 0.23
same,self-splicing fitness (ln),37 °C,-1.08 ± 0.17
AUGAAGCAAUAUUACGCUAG,self-splicing fitness (ln),30 °C,-0.164 ± 0.07
same,self-splicing fitness (ln),37 °C,0.337 ± 0.086
UGUGAGCAAUAUUACGCUGG,self-splicing fitness (ln),30 °C,-2.49 ± 0.28
same,self-splicing fitness (ln),37 °C,-2.71 ± 0.37
GGCUAGCAAUAUUACGUUUG,self-splicing fitness (ln),30 °C,-2.86 ± 0.11
same,self-splicing fitness (ln),37 °C,-1.45 ± 0.12
UAGCAGCAAUAUUACGUGUC,self-splicing fitness (ln),30 °C,-3.39 ± 0.15
same,self-splicing fitness (ln),37 °C,-2.2 ± 0.12
UCAAAGCAAUAUUACGUUCA,self-splicing fitness (ln),30 °C,-0.821 ± 0.099
same,self-splicing fitness (ln),37 °C,-0.534 ± 0.11
UUUGAGCAAUAUUACGUUGU,self-splicing fitness (ln),30 °C,-2.68 ± 0.21
same,self-splicing fitness (ln),37 °C,-2.46 ± 0.28
CAGAAGCAAUAUUACGGAAA,self-splicing fitness (ln),37 °C,-2.45 ± 0.36
UGCGAGCAAUAUUACGCGCG,self-splicing fitness (ln),30 °C,-2.71 ± 0.2
same,self-splicing fitness (ln),37 °C,-2.72 ± 0.3
UCUCAGCAAUAUUACGGAAC,self-splicing fitness (ln),30 °C,-3.48 ± 0.41
AGCUAGCAAUAUUACGGAGU,self-splicing fitness (ln),30 °C,-2.94 ± 0.22
same,self-splicing fitness (ln),37 °C,-2.18 ± 0.24
CAGCAGCAAUAUUACGGGUU,self-splicing fitness (ln),30 °C,-4.98 ± 0.26
same,self-splicing fitness (ln),37 °C,-1.6 ± 0.13
ACUUAGCAAUAUUACGCCCU,self-splicing fitness (ln),30 °C,-0.568 ± 0.16
same,self-splicing fitness (ln),37 °C,0.0637 ± 0.28
CAGCAGCAAUAUUACGGUUU,self-splicing fitness (ln),30 °C,-0.8 ± 0.062
same,self-splicing fitness (ln),37 °C,-0.225 ± 0.084
GUCUAGCAAUAUUACGUCGU,self-splicing fitness (ln),30 °C,-0.819 ± 0.096
same,self-splicing fitness (ln),37 °C,0.377 ± 0.092
UAUGAGCAAUAUUACGGACC,self-splicing fitness (ln),30 °C,-2.56 ± 0.41
same,self-splicing fitness (ln),37 °C,-2.43 ± 0.31
GAUGAGCAAUAUUACGUGAG,self-splicing fitness (ln),30 °C,-2.88 ± 0.23
same,self-splicing fitness (ln),37 °C,-2.06 ± 0.28
GCCGAGCAAUAUUACGCCAU,self-splicing fitness (ln),30 °C,-2.88 ± 0.23
same,self-splicing fitness (ln),37 °C,-2.5 ± 0.38
GAUCAGCAAUAUUACGCAAA,self-splicing fitness (ln),30 °C,-0.978 ± 0.17
same,self-splicing fitness (ln),37 °C,-0.367 ± 0.16
GGGUAGCAAUAUUACGCAGC,self-splicing fitness (ln),30 °C,-2.55 ± 0.13
same,self-splicing fitness (ln),37 °C,-0.837 ± 0.12
CCCUAGCAAUAUUACGCGGU,self-splicing fitness (ln),30 °C,-3.75 ± 0.16
same,self-splicing fitness (ln),37 °C,-2.53 ± 0.18
AGGGAGCAAUAUUACGUUGA,self-splicing fitness (ln),37 °C,-2.8 ± 0.24
CUUGAGCAAUAUUACGGUAG,self-splicing fitness (ln),30 °C,-2.88 ± 0.11
same,self-splicing fitness (ln),37 °C,-0.826 ± 0.094
UUGUAGCAAUAUUACGCUGU,self-splicing fitness (ln),30 °C,-3.02 ± 0.35
same,self-splicing fitness (ln),37 °C,-2.49 ± 0.27
GGUAAGCAAUAUUACGAGGU,self-splicing fitness (ln),30 °C,-3.61 ± 0.37
same,self-splicing fitness (ln),37 °C,-2.22 ± 0.28

# — the supplement of paper PMC7877785
